Assay results from patent US20230122991A1, “GROWTH FACTOR FORMULATION FOR CONDITION ASSOCIATED WITH OTIC EVENT” (OTONOMY, INC., priority 2020, published 2023).

Tested on: adult male rats bilaterally exposed to noise
Assay: Noise-induced cochlear synaptopathy, ABR thresholds and wave I amplitude (Example G)
Assay type: in vivo, rat
Protocol: Animals: Male Sprague-Dawley rats (5-6 months of age) were used for efficacy studies and females (2-3 months) were used for pharmacokinetic studies.
Formulations: Human recombinant BDNF was suspended in the thermoreversible polymer Poloxamer 407 (16%) to reach a range of BDNF concentrations.
Intratympanic (IT) injection: Formulations were administered under anesthesia as a single IT injection (20 μl) through the tympanic membrane into the middle ear, targeting the round window membrane (RWM).
Noise-induced cochlear synaptopathy: Rats (n=44 per treatment group) received a single acoustic trauma (105 dB SPL, 8-16 kHz, 1 h) under anesthesia. 24 hours later (Day 1) animals received a single bilateral IT injection of the treatment regimens. Auditory function (ABR and ABR wave 1 amplitude) was monitored at day 1 and then every 7 days for 28 days. At termination (Day 28), cochleae were collected and assessed for evidence of cochlear synaptopathy (IHC synaptic puncta counts).
Intratympanic BDNF improves Auditory Brainstem Response (ABR) thresholds and wave I amplitudes in adult rats. The Auditory Brainstem Response (ABR) is an objective test that measures hearing sensitivity and can identify abnormalities in the peripheral auditory system and the auditory pathway up through the brainstem. […]

B1: brain-derived neurotrophic factor (protein, UniProt P23560 129-247, looked up)
Neurotrophic factor BDNF: HSDPARRGELSVCDSISEWVTAADKKTAVDMSGGTVTVLEKVPVSKGQLKQYFYETKCNPMGYTKEGCRGIDKRHWNSQCRTTQSYVRALTMDSKKRIGWRFIRIDTSCVCTLTIKRGR
modifications: Neurotrophic factor BDNF in 16% poloxamer 407 gel
notes: Human recombinant BDNF
In the case of B1, the ABR threshold shift (0.05 mg/ml BDNF in P407, intratympanic injection 24 hours after noise exposure, ABR at days 1, 7, 14, and 28, vs P407 vehicle alone, FIG. 12A) is reported as “more rapid recovery of initial threshold shifts and overall reduced levels of hearing loss” and the “ABR wave I amplitudes” value (BDNF in P407 vs vehicle treatment following noise exposure, across many frequencies, FIG. 12C) is reported as “Significant improvements”.
